Among the data in US20230357838 are activity (fraction deaminated) values, retold here.

The target of data set [1] is APOBEC3A (UniProt P31941). Particulars: ssDNA deaminase control.
Data set [2] relates to AcDa01. The note with it: CG 0.790, CH 0.014.
Data set [3] concerns AshDa01 (Amycolatopsis sp.). The note with it: CG 0.699, CH 0.193.
Data set [4] has as its system EcDa01 (Escherichia coli).
For data set [5], the system named is MGYPDa01 (unidentified).
Data set [6] relates to NsDa01 (Neisseria subflava). The note with it: 5mC 0.059, 5hmC 0.017.
The subject of data set [7] is T1, RaDa01 (Ruminococcus sp.).
T1 sequence: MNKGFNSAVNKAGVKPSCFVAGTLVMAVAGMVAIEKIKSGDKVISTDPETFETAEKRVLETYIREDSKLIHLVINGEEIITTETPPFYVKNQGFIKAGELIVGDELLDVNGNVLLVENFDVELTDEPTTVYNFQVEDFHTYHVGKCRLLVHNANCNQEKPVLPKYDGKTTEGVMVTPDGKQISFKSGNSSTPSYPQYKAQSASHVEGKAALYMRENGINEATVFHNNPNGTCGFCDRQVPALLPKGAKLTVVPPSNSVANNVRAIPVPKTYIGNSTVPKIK

For data set [8], the system named is T2, chimera_10.
T2 sequence: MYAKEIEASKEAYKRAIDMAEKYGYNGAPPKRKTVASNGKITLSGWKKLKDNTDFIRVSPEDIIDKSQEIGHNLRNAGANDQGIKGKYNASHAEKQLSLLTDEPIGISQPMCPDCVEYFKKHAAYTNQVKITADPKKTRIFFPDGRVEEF

Data set [9] concerns the target DddA (UniProt P0DUH5).
For data set [10], the system named is T3, HcDa01.
T3 sequence: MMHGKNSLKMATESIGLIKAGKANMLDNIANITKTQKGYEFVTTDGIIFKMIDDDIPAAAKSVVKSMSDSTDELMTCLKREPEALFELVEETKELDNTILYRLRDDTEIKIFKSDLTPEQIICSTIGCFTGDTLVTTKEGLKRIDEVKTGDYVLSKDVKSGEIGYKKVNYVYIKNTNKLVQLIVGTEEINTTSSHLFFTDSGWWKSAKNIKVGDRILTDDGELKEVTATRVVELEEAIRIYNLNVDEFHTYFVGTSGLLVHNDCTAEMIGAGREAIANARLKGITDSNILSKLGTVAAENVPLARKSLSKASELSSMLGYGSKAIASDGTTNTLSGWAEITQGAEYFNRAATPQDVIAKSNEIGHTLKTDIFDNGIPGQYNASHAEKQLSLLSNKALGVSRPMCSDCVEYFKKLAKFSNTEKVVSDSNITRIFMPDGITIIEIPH

The subject of data set [11] is T4, LbDa02.
T4 sequence: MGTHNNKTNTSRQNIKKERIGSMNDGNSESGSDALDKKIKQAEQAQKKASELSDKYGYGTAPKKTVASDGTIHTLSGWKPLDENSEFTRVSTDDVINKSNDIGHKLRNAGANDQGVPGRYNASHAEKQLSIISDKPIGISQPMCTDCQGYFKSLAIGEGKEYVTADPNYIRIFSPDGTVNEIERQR
Particulars: NGS assay; Table 1 prints SEQ 19 for this name.

The subject of data set [12] is T5, RhDa01_extN10.
T5 sequence: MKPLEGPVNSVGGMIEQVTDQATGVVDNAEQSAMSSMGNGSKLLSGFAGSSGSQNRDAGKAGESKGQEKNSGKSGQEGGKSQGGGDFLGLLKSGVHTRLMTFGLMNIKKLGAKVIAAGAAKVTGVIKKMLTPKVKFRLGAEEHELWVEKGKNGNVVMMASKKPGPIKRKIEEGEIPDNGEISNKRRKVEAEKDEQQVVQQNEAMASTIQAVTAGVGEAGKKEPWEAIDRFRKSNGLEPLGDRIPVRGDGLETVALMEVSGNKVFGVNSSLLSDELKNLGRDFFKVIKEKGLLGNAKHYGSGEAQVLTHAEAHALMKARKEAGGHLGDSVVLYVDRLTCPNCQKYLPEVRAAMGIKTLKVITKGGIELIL
The note with it: CG 0.32, CH 0.00.

Data set [13] deals with T6, RhDa01.
T6 sequence: T5 sequence
Particulars: CG 0.23, CH 0.00.

The subject of data set [14] is SsDa01.
Data set [15] relates to T7, Sso7d_GGGVTS_AcDa01.
T7 sequence: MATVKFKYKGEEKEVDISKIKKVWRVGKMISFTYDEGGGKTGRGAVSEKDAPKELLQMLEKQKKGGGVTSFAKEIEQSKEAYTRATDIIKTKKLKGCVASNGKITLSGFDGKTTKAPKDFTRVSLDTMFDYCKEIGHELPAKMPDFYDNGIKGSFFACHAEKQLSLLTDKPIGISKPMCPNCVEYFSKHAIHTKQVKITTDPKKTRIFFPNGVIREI
Particulars: CG 0.79, CH 0.03.

Data set [16] relates to T8, Sso7d_LSGLSDDKLKEI_AcDa01.
T8 sequence: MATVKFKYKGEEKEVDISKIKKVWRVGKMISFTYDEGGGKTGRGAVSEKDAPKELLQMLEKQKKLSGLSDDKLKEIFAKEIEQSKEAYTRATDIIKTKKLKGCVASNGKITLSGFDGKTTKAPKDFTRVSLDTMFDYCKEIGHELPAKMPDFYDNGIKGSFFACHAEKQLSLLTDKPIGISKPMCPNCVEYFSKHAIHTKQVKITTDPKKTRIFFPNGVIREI
Particulars: CG 0.99, CH 0.17.

For data set [17], the system named is T9, Sso7d_RhDa01_extN10.
T9 sequence: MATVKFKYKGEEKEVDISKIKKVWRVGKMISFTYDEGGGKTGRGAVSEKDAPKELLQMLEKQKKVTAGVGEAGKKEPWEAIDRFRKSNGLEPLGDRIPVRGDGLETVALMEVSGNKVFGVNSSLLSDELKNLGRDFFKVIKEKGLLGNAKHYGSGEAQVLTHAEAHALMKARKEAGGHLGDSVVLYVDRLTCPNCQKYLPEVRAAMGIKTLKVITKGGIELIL

The test system of data set [18] is T10, Sso7d_VTAGVGEAG_MGYPDa20.
T10 sequence: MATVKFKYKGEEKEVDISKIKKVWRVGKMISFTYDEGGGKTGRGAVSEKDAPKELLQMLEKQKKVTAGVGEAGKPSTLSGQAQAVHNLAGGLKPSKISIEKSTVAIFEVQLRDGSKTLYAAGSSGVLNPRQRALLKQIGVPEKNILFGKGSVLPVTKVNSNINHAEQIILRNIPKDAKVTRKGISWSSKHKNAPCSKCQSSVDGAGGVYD

Data set [19] has as its system d22_PeDa01 (Pseudomonas entomophila).

Sequence of APOBEC3A (P31941 other isoform, or with tags, fused parts or gaps): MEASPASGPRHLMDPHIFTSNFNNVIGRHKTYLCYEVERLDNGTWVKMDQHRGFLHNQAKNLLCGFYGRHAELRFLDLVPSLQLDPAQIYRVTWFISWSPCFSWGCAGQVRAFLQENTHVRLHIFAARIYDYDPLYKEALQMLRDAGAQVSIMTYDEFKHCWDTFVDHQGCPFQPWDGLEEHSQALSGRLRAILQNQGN

Regarding “unmodified dsDNA (E. coli C2566 genomic)”, the activity (fraction deaminated) came to 0.331 in data set [1]; 0.243 in [2]; 0.342 in data set [3]; 0.566 in [4]; 0.748 in data set [5]; 0.597 in data set [6]. Besides, the activity (fraction deaminated) in [7] is 0.465; in [8], 0.95; in [9] it was 0.27; in [10], 0; in [11] it was 1; in data set [12], 0.1. In addition, the activity (fraction deaminated) in [13] was determined as 0.07; in data set [14], 0; in data set [15], 0.26; in data set [16], 0.41; in data set [17], 0.93; in data set [18], 0.72. This substance also gave an activity (fraction deaminated) in data set [19] of 0.79.
